Laboratory results as given in patent publication US20050144671A1 (ARIZONA BD OF REGENTS BEHALF OF UNIV OF ARIZONA, published 2005).

Target: T1, S-tag-ABI2 (full-length ABI2 cloned in pCITE4a, in vitro translated) (UniProt O04719 1-423)
T1 construct: also called S-tagged ABI2; not shown: S-tag encoded by pCITE4a
T1 sequence (looked up): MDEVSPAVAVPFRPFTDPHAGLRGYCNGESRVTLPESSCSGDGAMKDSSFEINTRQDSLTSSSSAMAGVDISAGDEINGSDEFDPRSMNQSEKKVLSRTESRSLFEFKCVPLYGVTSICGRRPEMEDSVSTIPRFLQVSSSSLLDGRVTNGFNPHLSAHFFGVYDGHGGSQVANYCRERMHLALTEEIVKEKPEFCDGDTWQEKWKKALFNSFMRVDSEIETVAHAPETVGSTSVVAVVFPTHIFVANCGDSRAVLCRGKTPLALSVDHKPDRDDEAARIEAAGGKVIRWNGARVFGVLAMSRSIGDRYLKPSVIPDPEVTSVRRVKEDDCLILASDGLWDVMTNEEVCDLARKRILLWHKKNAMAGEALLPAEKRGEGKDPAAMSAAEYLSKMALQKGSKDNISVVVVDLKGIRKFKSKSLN
Test: in vitro S-tag pull-down of 35S-labeled Snow1
Procedure: In-vitro pull down assay: In-vitro pull-down assays were conducted to confirm the physical interaction of Snow1 and Ice1. Full-length snow1 cloned in pGEM-T easy and AtMyb79 (cloned in EcoR I and Xho I sites of pBCSK Stratagene) were used. Full-length Ice1 and ABI2 were cloned in EcoRI/SalI and NcoI/EcoRI sites of pCITE4a. 2 μg each of the linearized plasmid were in vitro transcribed using Megascript T7 RNA polymerase kit (Ambion). 10 μg of the purified transcript of snow1 and AtMyb79 were in vitro translated using Flexi Rabbit Reticulocyte system (Promega) in presence of ³⁵S-methionine. S-tag-Ice1 and S-tag-ABI2 transcripts were translated in absence of ³⁵S-methionine and their proteins were purified using S-tag purification kit (Novagen) as per the manufacturer's instructions. S-Tag Ice1 and S-tag ABI2 bound on the S-Tag slurry were used to pull down ³⁵S-labeled proteins. In another experiment ³⁵S-labeled S-tag Ice was produced and was used for pull-down using either GST-Snow1 or GST-Myb79 proteins. Pull-down assays were conducted as described (Haftler et al 2000).

binding result: no binding
B1: 35S-labeled Snow1 (full-length snow1 in pGEM-T easy, in vitro transcribed and translated) (other)
chain: MGRAPCCEKMGLKRGPWTPEEDQILVSFILNHGHSNWRALPKQAGLLRCGKSCRLRWMNYLKPDIKRGNFTKEEEDAIISLHQILGNRWSAIAAKLPGRTDNEIKNVWHTHLKKRLEDYQPAKPKTSNKKKGTKPKSESVITSSNSTRSESELADSSNPSGESLFSTSPSTSEVSSMTLISHDGYSNEINMDNKPGDISTIDQECVSFETFGADIDESFWKETLYSQDEHNYVSNDLEVAGLVEIQQEFQNLGSANNEMIFDSEMELLVRCIGICE
modifications: 35S-methionine label
